The values that follow come from article PMC10441969, “Small protein Cgl2215 enhances phenolic tolerance by promoting MytA activity in Corynebacterium glutamicum” (Stress Biology, 2022).

The target in this assay is T1, His6-MytA (C. glutamicum, UniProt P0C1D6 44-657).
T1 sequence (looked up): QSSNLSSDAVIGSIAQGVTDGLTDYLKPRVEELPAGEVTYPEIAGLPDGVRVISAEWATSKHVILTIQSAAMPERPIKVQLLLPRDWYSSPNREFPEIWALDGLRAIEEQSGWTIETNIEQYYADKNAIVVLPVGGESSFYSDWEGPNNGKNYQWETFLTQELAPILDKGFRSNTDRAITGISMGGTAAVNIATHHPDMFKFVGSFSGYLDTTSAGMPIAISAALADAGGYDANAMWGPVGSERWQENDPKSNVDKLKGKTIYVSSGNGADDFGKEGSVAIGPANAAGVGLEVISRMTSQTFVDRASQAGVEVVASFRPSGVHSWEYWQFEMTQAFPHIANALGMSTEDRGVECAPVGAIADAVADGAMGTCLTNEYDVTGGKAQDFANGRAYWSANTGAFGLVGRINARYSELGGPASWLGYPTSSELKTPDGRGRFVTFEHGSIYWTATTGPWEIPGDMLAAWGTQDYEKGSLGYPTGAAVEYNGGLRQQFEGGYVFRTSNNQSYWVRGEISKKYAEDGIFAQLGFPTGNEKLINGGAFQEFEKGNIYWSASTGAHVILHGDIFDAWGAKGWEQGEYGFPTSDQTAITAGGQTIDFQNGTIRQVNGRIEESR
The assay is described as follows: cell-based or functional assay.

B1: GST-Cgl2215 (natural protein, C. glutamicum, UniProt Q8NNI6 1-71, looked up)
chain: MNHKLFGSKQFRKEKEMGLRIRPNEMKVWETFTLERQLEVIINADHLLLFRGEPHGTVSLSDVVASELIGI
Regarding B1, the “in vitro esterase activity of MytA (release of p-NP from p-NPP; MytA 4.7 μM) with GST-Cgl2215 at a 1:1 ratio of GST-Cgl2215:MytA and higher ratios (further increased)” value was determined as 1.6 fold.
